Measured values published in paper PMC11587947.

What was measured:
Assay in all cases: turbidimetry of self-assembly
[1] = molecular target: HIV-1 capsid protein CA mutant E45A (HIV-1 (strain BH10))
[2] = molecular target: HIV-1 capsid protein CA mutant Q63A (HIV-1 (strain BH10))
[3] = molecular target: HIV-1 capsid protein CA mutant Q192A (HIV-1 (strain BH10))
[4] = molecular target: HIV-1 capsid protein CA mutant P38A (HIV-1 (strain BH10))
[5] = molecular target: HIV-1 capsid protein CA mutant E180A (HIV-1 (strain BH10))
[6] = molecular target: HIV-1 capsid protein CA mutant V165A (HIV-1 (strain BH10))
[7] = molecular target: HIV-1 capsid protein CA mutant S178A (HIV-1 (strain BH10))

HIV-1 capsid protein CA mutant E45A (natural protein)
growth rate constant kg relative to wt [1]: 11.5 fold of wt

HIV-1 capsid protein CA mutant Q63A (natural protein)
growth rate constant kg relative to wt [2]: 0.6 fold of wt

HIV-1 capsid protein CA mutant Q192A (natural protein)
growth rate constant kg relative to wt [3]: 2.7 fold of wt

HIV-1 capsid protein CA mutant P38A (natural protein)
growth rate constant kg relative to wt [4]: 18.5 fold of wt

HIV-1 capsid protein CA mutant E180A (natural protein)
growth rate constant kg relative to wt [5]: 0.8 fold of wt

HIV-1 capsid protein CA mutant V165A (natural protein)
growth rate constant kg relative to wt [6]: 28 fold of wt | nucleation rate constant kn relative to wt [6]: > 100 fold of wt

HIV-1 capsid protein CA mutant S178A (natural protein)
growth rate constant kg relative to wt [7]: 5.6 fold of wt
